Reference: FireProtDB (doi:10.1021/bi962163z)

Conditions: Homo sapiens, Thermal, DSC, reversible: no, whole UniProt chain shown

B1: Annexin A5 wild type, P08758 (protein)
chain: MAQVLRGTVTDFPGFDERADAETLRKAMKGLGTDEESILTLLTSRSNAQRQEISAAFKTLFGRDLLDDLKSELTGKFEKLIVALMKPSRLYDAYELKHALKGAGTNEKVLTEIIASRTPEELRAIKQVYEEEYGSSLEDDVVGDTSGYYQRMLVVLLQANRDPDAGIDEAQVEQDAQALFQAGELKWGTDEEKFITIFGTRSVSHLRKVFDKYMTISGFQIEETIDRETSGNLEQLLLAVVKSIRSIPAYLAETLYYAMKGAGTDDHTLIRVMVSRSEIDLFNIRKEFRKNFATSLYSMIKGDTSGDYKKALLLLCGEDD
Tm (pH 4, Sodium phosphate 20 mM): 40.6 °C | unfolding enthalpy (calorimetric) (pH 4, Sodium phosphate 20 mM): 128 kcal/mol | unfolding enthalpy (van 't Hoff) (pH 4, Sodium phosphate 20 mM): 151 kcal/mol | Tm (pH 6, Sodium phosphate 20 mM): 50.5 °C | unfolding enthalpy (calorimetric) (pH 6, Sodium phosphate 20 mM): 147 kcal/mol | unfolding enthalpy (van 't Hoff) (pH 6, Sodium phosphate 20 mM): 174 kcal/mol | Tm (pH 7, Sodium phosphate 20 mM): 53.4 °C | unfolding enthalpy (calorimetric) (pH 7, Sodium phosphate 20 mM): 163 kcal/mol | unfolding enthalpy (van 't Hoff) (pH 7, Sodium phosphate 20 mM): 189 kcal/mol | Tm (pH 8, Sodium phosphate 20 mM): 54.4 °C | unfolding enthalpy (calorimetric) (pH 8, Sodium phosphate 20 mM): 162 kcal/mol | unfolding enthalpy (van 't Hoff) (pH 8, Sodium phosphate 20 mM): 199 kcal/mol | Tm (pH 8, Tris 50 mM, KCl 100 mM): 52.5 °C | unfolding enthalpy (calorimetric) (pH 8, Tris 50 mM, KCl 100 mM): 163 kcal/mol | unfolding enthalpy (van 't Hoff) (pH 8, Tris 50 mM, KCl 100 mM): 190 kcal/mol
